In IntAct's records for PubMed 20126385:

B1: Adenomatous polyposis coli protein-related protein 1 (Caenorhabditis elegans), Q21227-1 (parent)
chain: MSSSSSDENETTIHRTGSNTGGSGIYSQPRAGSSKRTSNVRHDVSDVDDEEEHYARFREDTAIEVDDAITVLLSSLHFEHKRDIVPTDEDDNKLRELHEKIFALITSESDVNRKRRLKKALPASNCVREQVYYLRRKPSTPPASYYHRLNAALHTIVKESFGEEYRKVATVLGLVEALAEVLILEVHTFGINETNPGEHRNIRKLIANALTNLTYGQIHSKRRLCSYDGFIRCVVRIVIESPNITQVYAGLIRNLSWNADSGMSEALQPTVHALSIAAVHAHTHRFDVTATLSALWNLAGHSVENKRTICDTPNCLKVLASLLSPDARFTSLVDSATGILKYVSQYLANTSTHLELRSLLITRMLTLLKSASFTCVTNTLGAIANLIVKDPHMQQMIRQDMAAVQQLNVLRNSNRDDIRTAVKSVLNTLNQPCSHRYGDMSHSVGGGATGMQMLSEPQLQMQTSHHAYHGTASPRLLSLRATRASPGKYIQPQAQQQLIQTPQVDQRSSSLPRHFAVQRNGFVMAQSYNQQMDQHQQQQMIYQLQQQQQIMFQTEDQAQMEHHQQIMYLQQQQQQFHQIQQQQQMQKAQEADPVPPTDDDLDIPTSTVMGTRSNSERSLGSMNPGSVMTNWNSSLDTAANSSRALSPVSYNDIPASPTMCAQVFNLPKSTESEHHQLTSQQQNTTHYSSGSANTMTRSDGATTVPMDNIITPTYAILNPILVHEQTPNGTVPRKTSEELDSPDDVLPGPSLEEEEGDYAIIGGAAQKTDDELLTRSIQSEMPTSSSTPKMKVSPRLNGFFSPTQKTTSSPAWSHPDTSPIPKSSSHRTQPNRRQDASDADRLLMESIMSEMPKSRIISPRLAGTQQYLEPEPERRSHSKNEEADRRDAFTASHEPSDHNGIDVARGSDWSPQQQLHRMESLESQASSEDSFGLTAEEPNSSTSGAAANTMRFDDEIDASLPMDCVDDDDYDYTYDHFEDYEDEEDPDATQFDDGVDAQLTIDCSMISSGSGSSQRNETTTTSRDSKALATSTPKGSASSLPGVRQATRVSTNGKSRLPVPKTNGSLVDKNPKPIIASRRPRLPPKPTLLKDKHYPEEDSIENQTRDDTIYVNAPVVEAEQERIYMNALKQQKNIEQSPSIGNGSPIAKSAIVTPYNYQKPPFTGRNNGEMSNEKSVTPNPKQMLVTIV
partner: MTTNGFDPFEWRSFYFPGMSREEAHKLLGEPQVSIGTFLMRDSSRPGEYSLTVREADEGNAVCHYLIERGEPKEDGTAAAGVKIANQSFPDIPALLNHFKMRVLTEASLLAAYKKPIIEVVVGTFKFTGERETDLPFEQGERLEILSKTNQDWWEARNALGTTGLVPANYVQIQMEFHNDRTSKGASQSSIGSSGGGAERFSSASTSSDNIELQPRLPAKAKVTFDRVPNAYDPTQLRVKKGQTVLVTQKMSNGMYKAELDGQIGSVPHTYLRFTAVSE

Variants of: B1
Conditions: with ced2_caeel ced-2, Q9NHC3

| effect of a mutation on the interaction | Variant |
| --- | --- |
| decreasing interaction | Y489A |
